For data set [1], the target named is T1, human FcγRIIB (NM_004001) (human, UniProt P31994 43-310).
T1 construct: also called FcγRIIB expressed on transfected Expi293F cells
T1 sequence: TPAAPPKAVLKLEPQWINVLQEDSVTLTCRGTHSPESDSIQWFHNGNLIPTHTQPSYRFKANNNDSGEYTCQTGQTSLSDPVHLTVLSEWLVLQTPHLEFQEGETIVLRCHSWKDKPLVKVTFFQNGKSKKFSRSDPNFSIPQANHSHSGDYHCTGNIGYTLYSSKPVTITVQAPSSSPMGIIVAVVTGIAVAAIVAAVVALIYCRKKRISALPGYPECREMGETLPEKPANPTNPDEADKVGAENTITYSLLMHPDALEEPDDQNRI
Put plainly: flow cytometry on Expi293F cells transfected with FcγRIIB. As for the experimental part: (§1) Plasmids expressing cDNAs encoding human FcγRI (NM_000566) (SEQ ID NO: 59), FcγRIIA (NM_021642) (SEQ ID NO: 60), FcγRIIB (NM_004001) (SEQ ID NO: 61), and FcγRIIIA (NM_000569) (SEQ ID NO: 62) (Origene) were transiently transfected into Expi293F cells by Expifectmine293 transfection kit (Life Technologies). Flow cytometry assays were performed 48 h after transfection.
(§2) 2×10⁵ cells per well were seeded in 96-well plate and blocked in BSA Stain Buffer (BD Biosciences, San Jose, USA) for 30 min at 4° C. Cells were incubated with test antibody on ice for 1.5 hour at 4° C. After being washed twice with BSA stain buffer, the cells were incubated with R-PE labeled anti-human or anti-mouse IgG secondary antibody (Jackson Immunoresearch Laboratories) for 45 min at 4° C. The cells were washed twice in stain buffer and then resuspended in 150 μL of Stain Buffer containing 1:200 diluted DRAQ7 live/dead stain (Cell Signaling Technology, Danvers, USA). PE and DRAQ7 signals of the stained cells were detected by Miltenyi MACSQuant flow cytometer (Miltenyi Biotec, Auburn, USA) using B2 and B4 channel respectively. Live cells were gated on DRAQ7 exclusion and the geometric mean fluorescence signals were determined for at least 10,000 live events collected. FlowJo software (Tree Star) was used for analysis. Data was plotted as the logarithm of antibody concentration versus mean fluorescence signals. Nonlinear regression analysis was performed by GraphPad Prism 6 (GraphPad Software, Inc.) and EC₅₀ values were calculated.

Data set [2] addresses T2, human OX40 (CD134) (human, UniProt P43489 29-277).
T2 construct: also called HEK-Blue: OX40 cells; transfected OX40 receptor
T2 sequence: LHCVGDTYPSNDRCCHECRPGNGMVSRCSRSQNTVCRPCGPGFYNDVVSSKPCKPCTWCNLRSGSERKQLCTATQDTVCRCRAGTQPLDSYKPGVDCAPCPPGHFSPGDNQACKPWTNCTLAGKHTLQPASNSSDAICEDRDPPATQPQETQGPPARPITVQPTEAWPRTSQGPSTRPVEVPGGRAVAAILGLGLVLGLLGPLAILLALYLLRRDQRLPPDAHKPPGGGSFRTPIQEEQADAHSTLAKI
Put plainly: NanoBRET PPI assay on HEK-Blue: OX40 cells (discussion). The protocol: The next day, equal concentrations of Nanoluc-tagged antibody (donor) and Halotag-tagged antibody (acceptor) in 50 μl assay medium (Opti-MEM I reduced serum medium, no phenol red plus 4% FBS) were applied to the cells. Halotag 618 ligand diluted 1:1000 in 50 μl assay medium were added in experimental well, and a no ligand control well was also set up by diluting DMSO 1:1000 in assay medium. After incubation at 37° C. for 30 min, the cells were washed twice with assay medium and resuspended in 100 μl assay medium. 25 μl Nano-Glo substrate, diluted 1:200 in assay medium without FBS, was added to each well. After shaking for 30 seconds, the donor emission (460 nm) and acceptor emission (618 nm) were measured by Envision. Raw NanoBRET ratio values with milliBRET units (mBU) were calculated as RawBRET=618 nmEm/460 nmEm*1000. To factor in donor-contributed background or bleed through, Corrected NanoBRET ratio values with milliBRET units was calculated as CorrectedBRET=RawBRETₑₓₚₑᵣᵢₘₑₙₜₐₗ sample−RawBRET_{no-ligand control sample}, which reflects energy transfer from a bioluminescent protein donor to a fluorescent protein acceptor due to protein-protein interactions.
To evaluate whether the engineered antibodies multimerize upon binding antigens at the cell surface a NanoBRET™ protein-protein interaction (PPI) assay was conducted. This assay is a proximity-based assay that detects protein-protein interactions by measuring energy transfer from a bioluminescent protein donor to a fluorescent protein acceptor. […] NanoBRET PPI assays were performed by applying the donor and acceptor antibodies to HEK-Blue: OX40 cells and the calculated corrected NanoBRET ratios reflect the association of multimerized antibody.

Data set [3] has as its target human FcγRI (NM_000566) (human, UniProt P12314 16-374). Put plainly: flow cytometry on Expi293F cells transfected with FcγRI. The protocol:
as §1
as §2, with “The cells were washed twice in stain buffer and then resuspended in 150 μL of Stain Buffer containing 1:200 diluted DRAQ7 live/dead stain (Cell Signaling Technology, Danvers, USA).” left out, “FlowJo software (Tree Star) was used for analysis.” left out

Data set [4] concerns the molecule itself. The experiment in a line: SEC, self-association in solution.
In data set [5] the target is human FcγRIIIA (NM_000569) (human, UniProt P08637 17-254). The experiment in a line: flow cytometry on Expi293F cells transfected with FcγRIIIA. As for the experimental part: as §1, §2
human FcγRIIIA (NM_000569), sequence (P08637 17-254 limits assumed): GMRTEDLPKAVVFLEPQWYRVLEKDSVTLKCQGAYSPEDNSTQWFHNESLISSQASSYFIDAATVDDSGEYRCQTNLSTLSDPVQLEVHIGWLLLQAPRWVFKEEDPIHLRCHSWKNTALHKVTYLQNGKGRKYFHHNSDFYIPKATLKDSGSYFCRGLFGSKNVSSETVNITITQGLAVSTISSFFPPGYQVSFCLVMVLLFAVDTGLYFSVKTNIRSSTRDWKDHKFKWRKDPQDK
The target of data set [6] is T3, FcγRIIB on Raji cells (human, UniProt P31994 43-310).
T3 sequence (looked up): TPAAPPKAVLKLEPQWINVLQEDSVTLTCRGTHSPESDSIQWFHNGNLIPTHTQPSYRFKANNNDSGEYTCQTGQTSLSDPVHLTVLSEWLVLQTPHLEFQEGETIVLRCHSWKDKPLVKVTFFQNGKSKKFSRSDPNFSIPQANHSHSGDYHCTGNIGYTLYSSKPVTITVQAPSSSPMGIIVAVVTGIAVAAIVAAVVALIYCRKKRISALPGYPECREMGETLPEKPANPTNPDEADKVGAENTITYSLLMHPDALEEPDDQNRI
Put plainly: cell-based or functional assay.

Data set [7] addresses T4, human FcγRIIA (NM_021642) (human, UniProt P12318 36-317).
T4 construct: also called FcγRIIA^R131; R131 allotype of FcγRIIA
T4 sequence: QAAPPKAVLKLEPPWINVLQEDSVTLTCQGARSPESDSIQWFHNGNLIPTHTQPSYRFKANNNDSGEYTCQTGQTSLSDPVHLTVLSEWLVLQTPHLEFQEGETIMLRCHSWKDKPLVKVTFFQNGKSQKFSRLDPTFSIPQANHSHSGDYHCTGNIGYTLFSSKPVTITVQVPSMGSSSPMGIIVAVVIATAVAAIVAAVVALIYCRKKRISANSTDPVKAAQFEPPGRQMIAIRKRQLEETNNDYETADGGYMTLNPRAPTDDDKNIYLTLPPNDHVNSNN
Put plainly: flow cytometry on Expi293F cells transfected with FcγRIIA (R131 allotype per text). The protocol:
as §1
as §2, with “The cells were washed twice in stain buffer and then resuspended in 150 μL of Stain Buffer containing 1:200 diluted DRAQ7 live/dead stain (Cell Signaling Technology, Danvers, USA).” left out, “FlowJo software (Tree Star) was used for analysis.” left out

Data set [8] deals with T1, human FcγRIIB (NM_004001). The experiment in a line: binding to transfected Expi293F cells (data not shown).

Data on 8 molecules can be found in patent US20200231693A1 (Janssen / Centocor, published 2020).

Bounds are passed on as bounds.

human FcγRI (NM_000566), sequence (P12314 16-374 limits assumed): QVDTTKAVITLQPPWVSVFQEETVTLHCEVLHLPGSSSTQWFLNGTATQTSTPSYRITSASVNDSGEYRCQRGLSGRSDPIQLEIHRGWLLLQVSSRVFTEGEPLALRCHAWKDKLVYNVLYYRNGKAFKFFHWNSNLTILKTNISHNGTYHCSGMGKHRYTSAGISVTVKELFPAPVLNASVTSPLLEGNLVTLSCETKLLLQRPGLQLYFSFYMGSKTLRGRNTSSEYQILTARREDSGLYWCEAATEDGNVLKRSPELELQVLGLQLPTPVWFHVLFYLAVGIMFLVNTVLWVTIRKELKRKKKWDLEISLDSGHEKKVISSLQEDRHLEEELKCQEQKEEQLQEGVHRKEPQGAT

B1: anti-FcγRIIB antibody 2B6 (antibody)
chain 1: QVQLQQPVTELVRPGASVMLSCKASDYPFTNYWIHWVKQRPGQGLEWIGVIDPSDTYPNYNKKFKGKATLTVVVSSSTAYMQLSSLTSDDSAVYYCARNGDSDYYSGMDYWGQGTSVTVSS
chain 2: DILLTQSPAILSVSPGERVSFSCRTSQSIGTNIHWYQQRTNGFPRLLIKNVSESISGIPSRFSGSGSGTDFILSINSVESEDIADYYCQQSNTWPFTFGGGTKLEIK
For B1, the response in data set [1] was half-maximal at 0.431 µg/mL (EC50).

B2: OX40SF2IgG1E345R/E430G (antibody)
heavy: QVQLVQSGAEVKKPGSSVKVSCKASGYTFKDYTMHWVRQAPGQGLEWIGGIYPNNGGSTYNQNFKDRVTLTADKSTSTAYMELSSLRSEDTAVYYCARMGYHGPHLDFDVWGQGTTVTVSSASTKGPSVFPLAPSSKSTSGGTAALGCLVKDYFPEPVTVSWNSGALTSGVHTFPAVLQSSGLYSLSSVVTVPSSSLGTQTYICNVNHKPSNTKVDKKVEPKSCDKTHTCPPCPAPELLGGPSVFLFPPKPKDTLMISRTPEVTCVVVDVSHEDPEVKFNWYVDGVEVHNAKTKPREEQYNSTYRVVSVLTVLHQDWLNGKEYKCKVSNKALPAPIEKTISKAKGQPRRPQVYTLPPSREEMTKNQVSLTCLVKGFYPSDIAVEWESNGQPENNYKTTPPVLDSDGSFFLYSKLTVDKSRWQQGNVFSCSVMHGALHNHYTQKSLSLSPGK
VL: DIQMTQSPSSLSASVGDRVTITCKASQDVGAAVAWYQQKPGKAPKLLIYWASTRHTGVPSRFSGSGSGTDFTLTISSLQPEDFATYYCQQYINYPLTFGGGTKVEIK
notes: Full IgG1; In the NanoBRET assay the light chains carried a C-terminal Nanoluc or HaloTag
As for B2, in data set [2], the binding result is on record as “binds”.

B3: OX40SF2IgG1 (antibody)
heavy: not shown
VL: DIQMTQSPSSLSASVGDRVTITCKASQDVGAAVAWYQQKPGKAPKLLIYWASTRHTGVPSRFSGSGSGTDFTLTISSLQPEDFATYYCQQYINYPLTFGGGTKVEIK
notes: Full IgG1, wild-type Fc; also called SF2 antibody with native human IgG1 Fc; wild-type IgG1
Take B3: the EC50 in data set [3] was found to be 0.326 µg/mL; in data set [5], 0.744 µg/mL. The binding result in data set [4] is “no binding”.

B4: OX40SF2IgG1E430G (antibody)
heavy: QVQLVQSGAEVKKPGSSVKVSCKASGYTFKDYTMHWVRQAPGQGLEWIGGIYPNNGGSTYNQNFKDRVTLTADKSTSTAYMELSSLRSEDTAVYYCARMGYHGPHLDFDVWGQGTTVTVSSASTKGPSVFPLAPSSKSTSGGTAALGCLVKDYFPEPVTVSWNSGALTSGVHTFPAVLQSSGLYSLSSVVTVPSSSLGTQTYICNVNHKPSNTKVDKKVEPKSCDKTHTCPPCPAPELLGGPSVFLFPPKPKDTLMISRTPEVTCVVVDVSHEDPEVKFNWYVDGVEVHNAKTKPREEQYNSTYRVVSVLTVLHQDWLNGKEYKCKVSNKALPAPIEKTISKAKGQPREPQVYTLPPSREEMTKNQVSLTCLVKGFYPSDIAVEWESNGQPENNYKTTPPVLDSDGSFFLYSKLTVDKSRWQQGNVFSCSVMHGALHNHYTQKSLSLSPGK
VL: DIQMTQSPSSLSASVGDRVTITCKASQDVGAAVAWYQQKPGKAPKLLIYWASTRHTGVPSRFSGSGSGTDFTLTISSLQPEDFATYYCQQYINYPLTFGGGTKVEIK
notes: as for B2
As to B4, in data set [2], the binding result was “binds”.

B5: OX40SF2IgG1S267E/L328F (antibody, name in EU numbering)
heavy: not shown
VL: DIQMTQSPSSLSASVGDRVTITCKASQDVGAAVAWYQQKPGKAPKLLIYWASTRHTGVPSRFSGSGSGTDFTLTISSLQPEDFATYYCQQYINYPLTFGGGTKVEIK
notes: Full IgG1; Positions are EU Index, not positions on the UniProt entry
As to B5, the EC50 in data set [1] came to 0.459 µg/mL. Besides, the “HEK-Blue NFκB reporter assay, co-culture with Raji cells; efficacy at 1000 ng/ml against OX40 ligand at the same concentration” value in data set [6] is over 2 fold. For the same molecule, the binding result in data set [5] was “no binding (tested: 1 ng/ml to 10000 ng/ml)”. Also, in data set [7], the EC50 was 0.216 µg/mL and the “fold better potency (against OX40SF2IgG1, reference implied)” value came out at 20 fold.

B6: OX40SF2IgG1E345R (antibody)
heavy: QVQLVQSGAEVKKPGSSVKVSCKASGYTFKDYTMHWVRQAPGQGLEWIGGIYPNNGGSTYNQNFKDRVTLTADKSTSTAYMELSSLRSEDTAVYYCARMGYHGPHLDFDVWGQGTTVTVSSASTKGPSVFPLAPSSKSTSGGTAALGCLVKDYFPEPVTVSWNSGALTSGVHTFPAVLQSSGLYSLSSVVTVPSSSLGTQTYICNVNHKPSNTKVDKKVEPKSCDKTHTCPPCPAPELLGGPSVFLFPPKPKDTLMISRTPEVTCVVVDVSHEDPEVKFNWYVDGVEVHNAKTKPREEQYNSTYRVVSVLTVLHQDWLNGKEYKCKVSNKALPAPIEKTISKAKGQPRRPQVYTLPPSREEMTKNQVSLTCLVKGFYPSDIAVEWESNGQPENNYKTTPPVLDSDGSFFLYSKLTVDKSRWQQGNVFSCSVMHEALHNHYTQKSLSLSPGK
VL: DIQMTQSPSSLSASVGDRVTITCKASQDVGAAVAWYQQKPGKAPKLLIYWASTRHTGVPSRFSGSGSGTDFTLTISSLQPEDFATYYCQQYINYPLTFGGGTKVEIK
notes: as for B2
For B6, the binding result in data set [2] is listed as “binds”. The “HEK-Blue NFκB reporter assay, co-culture with Raji cells against no Raji cells” value in data set [6] was over 2 fold.

B7: OX40SF2IgG1V12 (antibody, name in EU numbering)
heavy: QVQLVQSGAEVKKPGSSVKVSCKASGYTFKDYTMHWVRQAPGQGLEWIGGIYPNNGGSTYNQNFKDRVTLTADKSTSTAYMELSSLRSEDTAVYYCARMGYHGPHLDFDVWGQGTTVTVSSASTKGPSVFPLAPSSKSTSGGTAALGCLVKDYFPEPVTVSWNSGALTSGVHTFPAVLQSSGLYSLSSVVTVPSSSLGTQTYICNVNHKPSNTKVDKKVEPKSCDKTHTCPPCPAPDLLGDDSVFLFPPKPKDTLMISRTPEVTCVVVDVSDEDGEVKFNWYVDGVEVHNAKTKPREEQYNSTYRVVSVLTVLHQDWLNGKEYKCKVSNKALPRPIEKTISKAKGQPREPQVYTLPPSRDELTKNQVSLTCLVKGFYPSDIAVEWESNGQPENNYKTTPPVLDSDGSFFLYSKLTVDKSRWQQGNVFSCSVMHEALHNHYTQKSLSLSPGK
VL: DIQMTQSPSSLSASVGDRVTITCKASQDVGAAVAWYQQKPGKAPKLLIYWASTRHTGVPSRFSGSGSGTDFTLTISSLQPEDFATYYCQQYINYPLTFGGGTKVEIK
notes: Full IgG1; Positions are EU Index
Regarding B7, the EC50 in data set [1] was 0.502 µg/mL. Moreover, the “HEK-Blue NFκB reporter assay, co-culture with Raji cells; efficacy at 1000 ng/ml against OX40 ligand at the same concentration” value in data set [6] is over 2 fold. The binding result in data set [5] is “no binding (tested: 1 ng/ml to 10000 ng/ml)”.

B8: OX40SF2IgG1E345R/E430G/S440Y (antibody)
heavy: QVQLVQSGAEVKKPGSSVKVSCKASGYTFKDYTMHWVRQAPGQGLEWIGGIYPNNGGSTYNQNFKDRVTLTADKSTSTAYMELSSLRSEDTAVYYCARMGYHGPHLDFDVWGQGTTVTVSSASTKGPSVFPLAPSSKSTSGGTAALGCLVKDYFPEPVTVSWNSGALTSGVHTFPAVLQSSGLYSLSSVVTVPSSSLGTQTYICNVNHKPSNTKVDKKVEPKSCDKTHTCPPCPAPELLGGPSVFLFPPKPKDTLMISRTPEVTCVVVDVSHEDPEVKFNWYVDGVEVHNAKTKPREEQYNSTYRVVSVLTVLHQDWLNGKEYKCKVSNKALPAPIEKTISKAKGQPRRPQVYTLPPSREEMTKNQVSLTCLVKGFYPSDIAVEWESNGQPENNYKTTPPVLDSDGSFFLYSKLTVDKSRWQQGNVFSCSVMHGALHNHYTQKYLSLSPGK
VL: DIQMTQSPSSLSASVGDRVTITCKASQDVGAAVAWYQQKPGKAPKLLIYWASTRHTGVPSRFSGSGSGTDFTLTISSLQPEDFATYYCQQYINYPLTFGGGTKVEIK
notes: In the NanoBRET assay the light chains carried a C-terminal Nanoluc or HaloTag; also called OX40SF2E345R/E430G/S440Y
For B8, the binding result in data set [8] and in data set [4] was “binds” throughout.
